Patent publication US20140170142A1 (AstraZeneca / MedImmune, published 2014)

Assays:
mouse serum albumin [1] = target: T1, mouse serum albumin (mouse, UniProt P07724 25-608); assay: SPR (BIAcore 3000), CM5 chip, PBS pH 7.5
T1 construct: also called MSA; mouse albumin
Excerpt: (§1) The interaction between different ABD-Fc variants and MSA (mouse serum albumin), HSA (human serum albumin) and mFcRn were monitored by surface plasmon resonance detection using BIAcore 3000 instrument. (GE Healthcare). First, ABD-Fc variants were coupled to dextran matrix of CM5 sensor chip using an Amine Coupling Kit at a surface density of 1000-2000 RU according to manufacturer's instructions. Human and mouse albumin as well mouse FcRn were flown over in a test-bind experiments at the concentrations ranging from 0.1-10 μM at a flow rate of 5 μl/min. Dilution and binding experiments were carried out in PBS pH7.5; 150 mM NaCl; 0.005% Tween for albumin binding and 50 mM NaPhosphate pH6.0; 150 mM NaCl; 0.005% Tween for mouse FcRn. Subsequently, the format of the Biacore experiments were flipped where mouse and human albumin as well as mouse FcRn were coupled to a CM5 chip using Amine Coupling Kit at surface densities ranging from 500-1500 RU. The ABD-Fc variants were flown over at three different concentrations 0.5; 1 and 10 μM. The latter format was more successful due to higher signal and self-consistency.

human serum albumin [2] = target: T2, human serum albumin (human, UniProt P02768 25-609); assay: SPR (BIAcore 3000), CM5 chip, three concentrations of injectant
T2 construct: also called HSA; human albumin
T2 sequence (P02768 25-609 limits assumed): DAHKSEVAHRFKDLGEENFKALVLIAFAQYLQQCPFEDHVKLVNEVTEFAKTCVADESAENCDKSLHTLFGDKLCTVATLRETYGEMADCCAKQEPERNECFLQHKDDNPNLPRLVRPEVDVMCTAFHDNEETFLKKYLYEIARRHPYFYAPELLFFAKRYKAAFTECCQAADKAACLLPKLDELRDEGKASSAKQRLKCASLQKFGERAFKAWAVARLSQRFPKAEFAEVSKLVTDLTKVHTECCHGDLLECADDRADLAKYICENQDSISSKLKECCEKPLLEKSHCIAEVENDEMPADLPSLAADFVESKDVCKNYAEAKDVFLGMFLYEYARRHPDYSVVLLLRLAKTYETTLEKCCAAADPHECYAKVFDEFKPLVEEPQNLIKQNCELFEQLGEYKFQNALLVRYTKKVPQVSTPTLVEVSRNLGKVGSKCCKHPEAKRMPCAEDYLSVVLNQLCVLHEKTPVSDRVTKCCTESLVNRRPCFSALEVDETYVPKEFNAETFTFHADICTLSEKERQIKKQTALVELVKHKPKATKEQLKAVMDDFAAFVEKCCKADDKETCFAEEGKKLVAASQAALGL
Excerpt: as §1

mouse serum albumin [3] = target: T1, mouse serum albumin; assay: as above
Excerpt: as §1

human serum albumin [4] = target: T2, human serum albumin; assay: SPR (BIAcore 3000), CM5 chip, PBS pH 7.5
Excerpt: as §1

mouse FcRn = target: T3, mouse FcRn (mouse, UniProt Q61559 22-297; P01887 21-119, limits assumed); assay: SPR (BIAcore 3000), CM5 chip, pH 6.0, three concentrations of injectant
T3 construct: also called mFcRn
T3 sequence (looked up): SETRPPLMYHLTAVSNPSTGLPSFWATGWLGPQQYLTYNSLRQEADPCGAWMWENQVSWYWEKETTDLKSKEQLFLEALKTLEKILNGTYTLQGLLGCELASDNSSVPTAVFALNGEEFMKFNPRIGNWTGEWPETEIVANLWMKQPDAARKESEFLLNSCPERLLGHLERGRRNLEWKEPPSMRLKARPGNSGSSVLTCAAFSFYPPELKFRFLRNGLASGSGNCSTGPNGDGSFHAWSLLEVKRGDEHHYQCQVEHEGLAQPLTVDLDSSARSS
T3 sequence (b2m, looked up): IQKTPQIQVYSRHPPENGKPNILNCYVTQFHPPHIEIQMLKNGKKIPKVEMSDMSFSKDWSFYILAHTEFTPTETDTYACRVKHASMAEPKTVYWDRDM
Excerpt: as §1

B1: ABD-Fc: fusion of unmodified ABD and unmodified Fc (Fc fusion)
chain: LAEAKVLANRELDKYGVSDYYKNLINNAKTVEGVKALIDEILAALPGAEPRGPTIKPCPPCKCPAPNLLGGPSVFIFPPKIKDVLMISLSPIVTCVVVDVSEDDPDVQISWFVNNVEVHTAQTQTHREDYNSTLRVVSALPIQHQDWMSGKEFKCKVNNKDLPAPIERTISKPKGSVRAPQVYVLPPPEEEMTKKQVTLTCMVTDFMPEDIYVEWTNNGKTELNYKNTEPVLDSDGSYFMYSKLRVEKKNWVERNSYSCSVVHEGLHNHHTTKSFSRTPGKGGGGSEQKLISEEDLGGGGSHHHHHH
notes: also called wild type ABD-Fc; ABD-Fc parental construct
Mouse serum albumin [1]
  binding result: binds

B2: ABD-TM-Fc: triple knockout mutations of ABD residues S18A; T20A and Y21A (Fc fusion)
chain: LAEAKVLANRELDKYGVADAYANLINNAKTVEGVKALIDEILAALPGAEPRGPTIKPCPPCKCPAPNLLGGPSVFIFPPKIKDVLMISLSPIVTCVVVDVSEDDPDVQISWFVNNVEVHTAQTQTHREDYNSTLRVVSALPIQHQDWMSGKEFKCKVNNKDLPAPIERTISKPKGSVRAPQVYVLPPPEEEMTKKQVTLTCMVTDFMPEDIYVEWTNNGKTELNYKNTEPVLDSDGSYFMYSKLRVEKKNWVERNSYSCSVVHEGLHNHHTTKSFSRTPGKGGGGSEQKLISEEDLGGGGSHHHHHH
notes: T20A/Y20A; Y21A)
Human serum albumin [2]
  binding result: no binding (tested: 10 µM)
Mouse serum albumin [3]
  binding result: no binding (tested: 10 µM)

B3: ABD-Fc (His 310): knockout substitution in Fc region of Igg2A H310A (Fc fusion)
chain: LAEAKVLANRELDKYGVSDYYKNLINNAKTVEGVKALIDEILAALPGAEPRGPTIKPCPPCKCPAPNLLGGPSVFIFPPKIKDVLMISLSPIVTCVVVDVSEDDPDVQISWFVNNVEVHTAQTQTHREDYNSTLRVVSALPIQAQDWMSGKEFKCKVNNKDLPAPIERTISKPKGSVRAPQVYVLPPPEEEMTKKQVTLTCMVTDFMPEDIYVEWTNNGKTELNYKNTEPVLDSDGSYFMYSKLRVEKKNWVERNSYSCSVVHEGLHNHHTTKSFSRTPGKGGGGSEQKLISEEDLGGGGSHHHHHH
notes: also called ABD-(His310TM)-Fc
Human serum albumin [4]
  binding result: binds
Mouse serum albumin [1]
  binding result: binds
Mouse FcRn
  binding result: no binding (tested: 10 µM)
